Measured values published in the RNAGym collection of RNA variant scans (doi:10.7554/elife.80360).

B1: Hairpin Ribozyme (parent)
chain: GUCCUCUUUCACGUGCGCGUGAAAGAGAGAAGUGAACCAGAGAAACACACGUUGUGGUAUAUUACCUGGUA

Variants of: B1
Experiment: self-cleavage, relative activity (ratio to wild type); higher = more cleavage; co-transcriptional

First: GUCCUCUUUCACGUGCGCGUGAUAGAGAGAAGUGAACCAGAGAAACACACGUUGUGGUAUAUUACCUUGUA
Second: GUCCUCUUUCACGUGCGCGUGAUAGAGAGAAGUGAACCAGAGAAACACACGUUGUGGUAUAUUACCUGUUA
The self-cleavage of the first is lower: 0.197 for the first, 0.247 for the second.

Going from GUCCUCUUUCACGUGCGCGUGAUAGAGAGAAGGGAACCAGAGAAACACACGUUGUGGUAUAUUACCUGGUA to GUCCUCUUUCACGUGCGCGUGAUAGAGAGAAGUGAACCAGAGAAACACACGUUGUGGCAUAUUACCUGGUA, the self-cleavage rises from 0.158 to 1.05.

Going from GUCCUCUUUCACGUGCGCGUGAUAGAGAGAAGUGAACCAGAGAAACACACGUUGUGGGAUAUUACCUGGUA to GUCCUCUUUCACGUGCGCGUGAUAGAGAGAAGUGAACCAGAGAAACACACGUUGUGGUAUAUGACCUGGUA, the self-cleavage falls from 0.663 to 0.199.

Compared with GUCCUCUUUCACGUGCGCGUGAUAGAGAGAAGUGAACCAGAGAAACACACGUUGUGGUAUAUUACCAGGUA, GUCCUCUUUCACGUGCGCGUGAUAGAGAGAAGUGAACCAGAGAAACACACGUUGUGGUAUAUUACCCGGUA is lower in self-cleavage: 0.237 for the first, 0.229 for the second.

Going from GUCCUCUUUCACGUGCGCGUGAUAGAGAGAAGUGAACCAGAGAAACACACGUUGUGGUAUAUUACCGGGUA to GUCCUCUUUCACGUGCGCGUGAUAGAGAGAAGUGAACCAGAGAAACACACGUUGUGGUAUAUUACCUGGAA, the self-cleavage rises from 0.213 to 0.729.

First: GUCCUCUUUCACGUGCGCGUGAUAGAGAGAAGUGAACCAGAGAAACACACGUUGUGGUAUAUUACCUGGGA
Second: GUCCUCUUUCACGUGCGCGUGAACGAGAGAAGUGAACCAGAGAAACACACGUUGUGGUAUAUUACCUGGUA
The self-cleavage of the first is lower: 0.647 for the first, 0.894 for the second.

First: GUCCUCUUUCACGUGCGCGUGAACGAGAGACGUGAACCAGAGAAACACACGUUGUGGUAUAUUACCUGGUA
Second: GUCCUCUUUCACGUGCGCGUGAACGAGAGAUGUGAACCAGAGAAACACACGUUGUGGUAUAUUACCUGGUA
The self-cleavage of the first is higher: 0.209 for the first, 0.107 for the second.

Compared with GUCCUCUUUCACGUGCGCGUGAACGAGAGAAGUGUACCAGAGAAACACACGUUGUGGUAUAUUACCUGGUA, GUCCUCUUUCACGUGCGCGUGAACGAGAGAAGUGACCCAGAGAAACACACGUUGUGGUAUAUUACCUGGUA is lower in self-cleavage: 0.938 for the first, 0.631 for the second.

Compared with GUCCUCUUUCACGUGCGCGUGAACGAGAGAAGUGAACCGGAGAAACACACGUUGUGGUAUAUUACCUGGUA, GUCCUCUUUCACGUGCGCGUGAACGAGAGAAGUGAACCAGGGAAACACACGUUGUGGUAUAUUACCUGGUA is higher in self-cleavage: 0.28 for the first, 0.846 for the second.

First: GUCCUCUUUCACGUGCGCGUGAACGAGAGAAGUGAACCAGAGAGACACACGUUGUGGUAUAUUACCUGGUA
Second: GUCCUCUUUCACGUGCGCGUGAACGAGAGAAGUGAACCAGAGAAACACCCGUUGUGGUAUAUUACCUGGUA
The self-cleavage of the first is lower: 0.104 for the first, 0.308 for the second.

Compared with GUCCUCUUUCACGUGCGCGUGAACGAGAGAAGUGAACCAGAGAAACACACGUUGUGGUGUAUUACCUGGUA, GUCCUCUUUCACGUGCGCGUGAACGAGAGAAGUGAACCAGAGAAACACACGUUGUGGUAUAUUUCCUGGUA is higher in self-cleavage: 0.0535 for the first, 0.172 for the second.

Going from GUCCUCUUUCACGUGCGCGUGAACGAGAGAAGUGAACCAGAGAAACACACGUUGUGGUAUAUUACCUGGUC to GUCCUCUUUCACGUGCGCGUGAACGAGAGAAGUGAACGAGAGAAACACACGUUGUGGUAUAUUACCUGGUA, the self-cleavage falls from 1.33 to 0.186.

First: GUCCUCUUUCACGUGCGCGUGAACGAGAGAAGUGAACUAGAGAAACACACGUUGUGGUAUAUUACCUGGUA
Second: GUCCUCUUUCACGUGCGCGUGAACGAGAGAAGUGAACCAGAGAAAAACACGUUGUGGUAUAUUACCUGGUA
The self-cleavage of the first is higher: 0.5 for the first, 0.134 for the second.

Going from GUCCUCUUUCACGUGCGCGUGAACGAGAGAAGUGAACCAGAGAAAGACACGUUGUGGUAUAUUACCUGGUA to GUCCUCUUUCACGUGCGCGUGAACGAGAGAAGUGAACCAGAGAAAUACACGUUGUGGUAUAUUACCUGGUA, the self-cleavage rises from 0.105 to 0.142.

Compared with GUCCUCUUUCACGUGCGCGUGAACGAGAGAAGUGAACCAGAGAAACAAACGUUGUGGUAUAUUACCUGGUA, GUCCUCUUUCACGUGCGCGUGAACGAGAGAAGUGAACCAGAGAAACACAAGUUGUGGUAUAUUACCUGGUA is lower in self-cleavage: 0.172 for the first, 0.103 for the second.

Compared with GUCCUCUUUCACGUGCGCGUGAACGAGAGAAGUGAACCAGAGAAACACAUGUUGUGGUAUAUUACCUGGUA, GUCCUCUUUCACGUGCGCGUGAACGAGAGAAGUGAACCAGAGAAACACACGUUGUGGUAUAUUAACUGGUA is higher in self-cleavage: 0.418 for the first, 0.922 for the second.

First: GUCCUCUUUCACGUGCGCGUGAACGAGAGAAGUGAACCAGAGAAACACACGUUGUGGUAUAUUAGCUGGUA
Second: GUCCUCUUUCACGUGCGCGUGAACGAGAGAAGUGAACCAGAGAAACACACGUUGUGGUAUAUUAUCUGGUA
The self-cleavage of the first is lower: 0.296 for the first, 0.402 for the second.

First: GUCCUCUUUCACGUGCGCGUGAACGAGAGAAGUGAACCAGAGAAACACACGUUGUGGUAUAUUACAUGGUA
Second: GUCCUCUUUCACGUGCGCGUGAACGAGAGAAGUGAACCAGAGAAACACACGUUGUGGUAUAUUACGUGGUA
The self-cleavage of the first is higher: 0.187 for the first, 0.0731 for the second.

First: GUCCUCUUUCACGUGCGCGUGAACAAGAGAAGUGAACCAGAGAAACACACGUUGUGGUAUAUUACCUGGUA
Second: GUCCUCUUUCACGUGCGCGUGAACGAUAGAAGUGAACCAGAGAAACACACGUUGUGGUAUAUUACCUGGUA
The self-cleavage of the first is lower: 0.219 for the first, 0.284 for the second.
